These are literature values, as cited in publication PMC10609526.

Usually Kd stands for the equilibrium constant for the complex coming apart.

This data set concerns the target DmsA Tat signal peptide (Escherichia coli) (UniProt P18775).
Chain of UniProt P18775 (P18775 1-45): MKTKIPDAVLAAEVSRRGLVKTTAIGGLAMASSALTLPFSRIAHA

Take DmsD (from UniProt P69853): the Kd was 220 nM.
